# Experimental data taken from PMC9943661, “8-Oxoguanine targeted by 8-oxoguanine DNA glycosylase 1 (OGG1) is central to fibrogenic gene activation upon lung injury”.
# Columns and labels:
# SMAD3 [1] = molecular target: T1, SMAD3 (UniProt P84022 1-425); experiment: EMSA; 10 mM HEPES pH 7.9, 10 mM KCl, 1.5 mM MgCl2, 1 mM DTT, 5% glycerol, 20 nM Cy5-DNA, on ice; 6% PAGE at 4 C; conditions: protein: recombinant; label: 5'-Cy5 on strand 1; blunt
# OGG1 = OGG1 (UniProt O15527 1-345); experiment: as above; conditions: protein: commercial; tags: His; label: 5'-Cy5 on strand 1; blunt
# SMAD3 [2] = molecular target: T1, SMAD3; experiment: EMSA; OGG1 + TH2840 (no decrease); 10 mM HEPES pH 7.9, 10 mM KCl, 1.5 mM MgCl2, 1 mM DTT, 5% glycerol, 20 nM Cy5-DNA, on ice; 6% PAGE at 4 C; conditions: protein: recombinant; label: 5'-Cy5 on strand 1; blunt
# SMAD2 = SMAD2 (UniProt Q15796 1-467); experiment: EMSA; with OGG1 100 nM, SMAD2 800 nM; shift increased; 10 mM HEPES pH 7.9, 10 mM KCl, 1.5 mM MgCl2, 1 mM DTT, 5% glycerol, 20 nM Cy5-DNA, on ice; 6% PAGE at 4 C; conditions: protein: recombinant; label: 5'-Cy5 on strand 1; blunt
# Sequence of SMAD2 (Q15796 whole entry): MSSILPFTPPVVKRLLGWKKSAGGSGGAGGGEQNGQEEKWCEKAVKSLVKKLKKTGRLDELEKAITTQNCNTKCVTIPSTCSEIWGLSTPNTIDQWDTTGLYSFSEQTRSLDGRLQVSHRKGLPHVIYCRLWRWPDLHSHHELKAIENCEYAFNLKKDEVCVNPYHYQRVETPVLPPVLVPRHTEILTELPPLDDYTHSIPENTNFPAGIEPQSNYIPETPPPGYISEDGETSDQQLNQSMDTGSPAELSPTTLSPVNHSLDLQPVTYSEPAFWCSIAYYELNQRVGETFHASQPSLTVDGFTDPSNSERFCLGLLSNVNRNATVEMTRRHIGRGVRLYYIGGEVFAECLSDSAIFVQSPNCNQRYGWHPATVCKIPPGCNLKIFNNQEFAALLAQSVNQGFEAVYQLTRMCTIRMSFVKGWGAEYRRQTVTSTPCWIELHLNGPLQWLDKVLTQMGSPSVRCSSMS
# Sequence of OGG1 (O15527 whole entry): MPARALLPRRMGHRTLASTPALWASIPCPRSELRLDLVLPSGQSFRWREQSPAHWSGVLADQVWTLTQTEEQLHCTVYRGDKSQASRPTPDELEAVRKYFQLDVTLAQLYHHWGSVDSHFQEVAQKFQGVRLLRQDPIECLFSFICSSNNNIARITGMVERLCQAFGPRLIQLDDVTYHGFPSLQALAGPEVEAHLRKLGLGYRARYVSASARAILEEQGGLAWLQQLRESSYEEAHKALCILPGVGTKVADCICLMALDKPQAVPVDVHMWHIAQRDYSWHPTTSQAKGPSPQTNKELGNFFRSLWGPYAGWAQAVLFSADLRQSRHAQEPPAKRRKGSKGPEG
# T1 sequence (P84022 whole entry): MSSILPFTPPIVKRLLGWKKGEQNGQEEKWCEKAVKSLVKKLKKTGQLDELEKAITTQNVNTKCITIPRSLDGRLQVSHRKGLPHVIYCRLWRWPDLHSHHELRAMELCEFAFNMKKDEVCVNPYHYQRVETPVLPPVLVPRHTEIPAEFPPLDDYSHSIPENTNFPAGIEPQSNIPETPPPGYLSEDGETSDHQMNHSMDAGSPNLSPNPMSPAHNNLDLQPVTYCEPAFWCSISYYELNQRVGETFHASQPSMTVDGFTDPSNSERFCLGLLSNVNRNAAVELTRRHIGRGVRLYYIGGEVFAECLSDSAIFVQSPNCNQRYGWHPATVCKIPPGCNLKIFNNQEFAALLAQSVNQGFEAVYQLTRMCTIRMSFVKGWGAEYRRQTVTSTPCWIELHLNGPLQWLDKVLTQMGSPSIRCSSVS
Binder,binding result (SMAD3 [1]),binding result (OGG1),binding result (SMAD3 [2]),binding result (SMAD2)
"G'1 (dsDNA, 8-oxoG at strand 1 position 6) DNA 1: CCCCAGGGTGAGCCCAGCTCAGACTATCATCCGGAAAGCCCCCAAAAGTCCCAGCCC DNA 2: GGGCTGGGACTTTTGGGGGCTTTCCGGATGATAGTCTGAGCTGGGCTCACCCTGGGG",binds,binds,–,–
"G'3 (dsDNA, 8-oxoG at strand 2 position 43 from its 5' end (opposite strand 1 position 15)) DNA 1: CCCCAGGGTGAGCCCAGCTCAGACTATCATCCGGAAAGCCCCCAAAAGTCCCAGCCC DNA 2: GGGCTGGGACTTTTGGGGGCTTTCCGGATGATAGTCTGAGCTGGGCTCACCCTGGGG",–,binds,binds,binds
"G'2 (dsDNA, 8-oxoG at strand 2 position 6 from its 5' end) DNA 1: CCCCAGGGTGAGCCCAGCTCAGACTATCATCCGGAAAGCCCCCAAAAGTCCCAGCCC DNA 2: GGGCTGGGACTTTTGGGGGCTTTCCGGATGATAGTCTGAGCTGGGCTCACCCTGGGG",binds,binds,–,–
G (dsDNA) DNA 1: CCCCAGGGTGAGCCCAGCTCAGACTATCATCCGGAAAGCCCCCAAAAGTCCCAGCCC DNA 2: GGGCTGGGACTTTTGGGGGCTTTCCGGATGATAGTCTGAGCTGGGCTCACCCTGGGG,binds,–,–,–
